Experimental data published in patent publication US20020045192A1, “Arf and HDM2 interaction domains and methods of use thereof” (St. Jude Children's Research Hospital, priority 2001, published 2002).
“Also recorded” adds a separate entry of the source.

Legend:
mArfN37 = molecular target: T1, mArfN37 (Mus musculus, UniProt Q64364); experiment: SPR binding of Hdm2 constructs and Hdm2 peptides to immobilized His-tagged mArfN37
T1 construct: An N-terminal fragment of mouse p19^Arf corresponding to residues 1-37 (mArfN37) was purified in a similar manner; made in house
T1 sequence (Q64364 1-37 limits assumed): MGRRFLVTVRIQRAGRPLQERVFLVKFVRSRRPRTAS
Method: Binding studies were performed using a Biacore 3000 surface plasmon resonance (SPR) instrument (Biacore, Inc.). A Tetra-His™ Antibody (Qiagen, Inc.; Cat. #34670) was covalently attached to a carboxymethylated gold surface (C-1 chip; Biacore, Inc.). The carboxymethyl groups on the surface were activated with N-ethyl-N′-(3-dimethylaminopropyl) carbodiimide (EDC) and N-hydroxysuccinimide (NHS) and the antibody was attached at pH 7.4 in 20 mM sodium phosphate buffer, 150 mM NaCl (PBS). Reactive sites remaining on the surface were blocked by reaction with ethanolamine. […] Binding was measured by flowing the non-His-tagged analyte through the reference and ligand-containing flow cells in sequence. […] Changes in the SPR response due to solvent differences and the injection process were monitored by injection of HBS-N buffer alone. […]
It has been previously shown that a fragment of mouse p19^Arf containing the N-terminal 37 amino acids (mArfN37) can (i) bind Hdm2, (ii) cause the relocalization of Hdm2 to nucleoli, and (iii) induce cell cycle arrest in MEFs [see, U.S. patent application Ser. No. 09/480,718, Filed Jan. […] However, because mArfN37 is a relatively small polypeptide, it was determined whether it could bind a correspondingly small segment of Hdm2. […]

GFP-p19^Arf = molecular target: T2, GFP-p19^Arf (Mus musculus, UniProt Q64364); experiment: Nuclear microinjection and live cell imaging of Texas Red labeled Hdm2 constructs in NIH 3T3 cells lacking Arf; format: cell-based; settings: NIH 3T3 Arf-/- cells, nuclear microinjection
T2 construct: expressed in transfected cells; host or cells: NIH 3T3 Arf-/- cells
T2 sequence (Q64364 1-169): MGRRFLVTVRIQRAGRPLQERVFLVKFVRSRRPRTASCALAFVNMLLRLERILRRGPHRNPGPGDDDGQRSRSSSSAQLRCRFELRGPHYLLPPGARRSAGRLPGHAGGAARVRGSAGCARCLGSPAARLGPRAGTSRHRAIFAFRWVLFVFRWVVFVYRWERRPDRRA
Method: Proteins for fluorescence microimaging studies were covalently modified using an amine-reactive, sulfosuccinimidyl ester of Texas Red™ (Molecular Probes, Inc., Cat. # C-1171). In brief, purified Hdm2-derived proteins were dialyzed into 100 mM sodium bicarbonate buffer, pH 8.3 at 2-4 mg/ml. The Texas Red™ dye was dissolved in dimethylsulfoxide at 10 mg/ml. Protein and dye 3:1 (vol:vol) were reacted for 1 hour at room temperature followed by purification using size-exclusion chromatography (NAP 5 G-25 columns, Amersham Pharmacia Biotech, Inc.). Labeled protein bands migrated more slowly than unlabeled protein in SDS-polyacrylamide gels consistent with the covalent attachment of dye.
NIH 3T3 Arf^−/− cells passage 10-15 were cultured in Dulbecco's modified Eagle's medium (Dulbecco's modified Eagle's medium (DMEM); Gibco-Invitrogen, Inc.), 10% fetal bovine serum (FBS) at 37° C., 7% CO2. 24 hours prior to transfection, cells were plated on 35 mm dishes coated with poly-D-Lysine (Mattek, Corp.) at a density of 3×10^4 cells per dish. Cells were transfected with a pcDNA plasmid (Invitrogen) containing the GFP-p19^ARF fusion protein using Fugene-6 (Roche Molecular Biochemicals, Inc.) in media according to the protocol supplied by the manufacturer. Sixteen hours post-transfection, the transfection media was refreshed with DMEM, 10% FBS and the cells were allowed to recover for four hours. […] An Axiovert 135 TV inverted fluorescence microscope with an automated stage controller (Carl Zeiss, Inc.) and circulating water bath heater (Fisher) was used for both microinjection and imaging. […]
Hdm2 deletion constructs tagged with a fluorescent label (Texas Red™) were microinjected into the nucleus of NIH 3T3 cells. importantly, the NIH 3T3 cell line used lacks the gene for Arf. […] A covalently bound fluorescent label was used to detect Hdm2 fragments instead of immuno fluorescence to avoid nonspecific background staining and staining variability due to differential antibody reactivity. […]

Hdm2 210-304 = molecular target: T3, Hdm2 210-304 (Homo sapiens, UniProt Q00987); experiment: CD-based binding assay, β-strand formation with Hdm2 210-304
T3 construct: poly-His (thrombin-cleavable, from pET28a) (cleaved yes); made in house; host or cells: E. coli BL21 (DE3)
T3 sequence (Q00987 210-304): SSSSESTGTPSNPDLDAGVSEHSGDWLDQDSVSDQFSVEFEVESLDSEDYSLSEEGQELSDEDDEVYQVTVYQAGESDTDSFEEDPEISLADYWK
Method: (§1) Spectra were recorded at 25° C. using an Aviv Model 62A DS circular dichroism spectropolarimeter (Aviv Instruments, Inc.) equipped with a thermoelectric temperature control unit. All samples were prepared in 10 mM Tris-HCl, pH 7.0 at 0.02-0.2 mM as determined by amino acid analysis. Spectra were recorded using 1 mm quartz cuveftes and reported spectra are the average of 10 scans over the range […]. Melting experiments were recorded in 10 mm quartz cuvettes with active stirring. The signal at 216 nm (β strand minimum) was used to monitor structural changes and the signal was averaged over 15 sec. The sample temperature was increased in 1° C. steps.
(§2) As discussed above, the addition of mArfN37 to Hdm2 210-304 results in the formation of supramolecular assemblies comprised of β-strands. Stepwise addition of sub-stoichiometric amounts of mArfN37 to Hdm2 210-304 increased β-strand secondary structure content as judged by the change in ellipticity at 200 nm using CD. […] The binding of mArfN37 to Hdm2 210-304, as monitored in this way, is saturable. Similar results were obtained when mArfN37 was mixed with the shorter fragment of Hdm2, Hdm2 210-275. Further, saturable binding is also observed when the Hdm2 fragments were added to an excess of mArfN37. These findings indicate that there are a limited number of binding sites for mArfN37 within Hdm2 210-304 and that discreet structures (containing β-strands) form when mArfN37 and Hdm2 210-304 (or 210-275) are mixed. […] Similar behavior is observed when mArfN37 binds Hdm2 210-275.
To investigate the roles of individual Arf motifs (A1 and A2) and Arf-binding segments of Hdm2 (H1 and H2) in the interactions between Arf and Hdm2 the binding of peptides containing these small segments (A1, A2, H1, or H2) to larger protein fragments of the corresponding binding partner (mArfN37 or Hdm2 210-304) were monitored using the CD-based binding assay. […] Peptides from the Hdm2 library that were positive for mArfN37 binding on the basis of SPR (i.e. those within H1 and H2) were mixed with mArfN37 and binding was monitored in the same manner. Three peptides from the H1 segment and one from the H2 segment of Hdm2 induce β-strand secondary structure when mixed with mArfN37 (FIG. 2c). These experiments indicate that peptides containing A1, A2, H1 or H2 can interact with larger fragments of the target protein and that the interactions also occur through the formation of β-sheet secondary structure. […] Importantly, however, further reduction in the size of the interacting species led to a loss of Arf/Hdm2 binding as judged by a failure to induce structure in CD titration experiments. […] Similarly, while peptides derived from the H1 or H2 segments of Hdm2 bind mArfN37, they fail to bind peptides derived from the A1 or A2 segments of mouse or human Arf. Furthermore, mixtures of two, three, or four different peptides that contain the important binding segments (A1, A2, H1, and H2) fail to interact, in contrast to the results obtained when A1 and A2, or H1 and H2, are covalent linked in larger protein fragments. Apparently, cooperative interactions between covalently linked binding segments from one protein (A1 and A2 of Arf, or H1 and H2 of Hdm2) are minimally required for Arf/Hdm2 interactions.

Hdm2 210-275 = molecular target: T4, Hdm2 210-275 (Homo sapiens, UniProt Q00987); experiment: CD-based binding assay, β-strand formation with Hdm2 210-275
T4 construct: poly-His (thrombin-cleavable, from pET28a) (cleaved yes); made in house; host or cells: E. coli BL21 (DE3)
T4 sequence (Q00987 210-275): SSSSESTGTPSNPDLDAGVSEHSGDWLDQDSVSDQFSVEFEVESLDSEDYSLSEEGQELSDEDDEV
Method: as §1, §2

Substance | induction of β-strand secondary structure when mixed with Hdm2 210-304 (CD) (Hdm2 210-304) | induction of β-strand assembly when mixed with Hdm2 210-275 (CD) (Hdm2 210-275) | other results
Hdm2 210-304: Fragment of Hdm2 corresponding to residues 210-304 of SEQ ID NO:8 |  |  | binding to His-tagged mArfN37 immobilized on the SPR biosensor surface (mArfN37; His-mArfN37 captured by covalently linked His antibody): bind tightly; localization of Texas Red labeled Hdm2 construct in cells that did not express Arf (GFP-p19^Arf): evenly dispersed in the nucleoplasm; localization of Texas Red labeled Hdm2 construct when GFP-p19^Arf is expressed (GFP-p19^Arf): co-localized within nucleoli; also recorded: nucleolar localization
Hdm2 277-491: Texas Red labeled Hdm2 deletion construct containing residues 277-491 |  |  | localization of Texas Red labeled Hdm2 construct when GFP-p19^Arf is expressed (GFP-p19^Arf): nucleolar localization
human A1 (1-14): Peptide containing the human Arf motif A1, residues 1-14 (MVRRFLVTLRIRRA) | produce the random-to-β-strand structure transition | interaction | 
human A2 (16-30): Peptide containing the human Arf motif A2, residues 16-30 (GPPRVRVFVVHIPRL) | produce the random-to-β-strand structure transition | fail to induce β-strand assembly | 
mArfN37: N-terminal fragment of mouse p19^Arf corresponding to residues 1-37 (MGRRFLVTVRIQRAGRPLQERVFLVKFVRSRRPRTAS) | striking transition from random conformations to β-strand secondary structure | striking transition from random conformations to β-strand secondary structure | 
mouse A1 (1-14): Peptide corresponding to the mouse Arf motif A1, residues 1-14 (MGRRFLVTVRIQRA) | induce the transition from random conformations to β-strand secondary structure | interaction | 
mouse A2 (16-30): Peptide corresponding to the mouse Arf motif A2, residues 16-30 (RPLQERVFLVKFVRS) | induce the transition from random conformations to β-strand secondary structure | fail to induce β-strand assembly | 
residues 290-304 of SEQ ID NO:8: short synthetic Hdm2 peptide containing residues 290-304 of SEQ ID NO:8 (SFEEDPEISLADYWK; listed as Homo sapiens) |  |  | relative binding affinity for mArfN37 (SPR) (mArfN37; short synthetic Hdm2 peptides, 15 amino acids): modest affinity
